{"source": "patent US20180112193A1", "about": "“CSF1 THERAPEUTICS” (University Court Of The University Of Edinburgh, priority 2013, published 2018)", "molecules": {"B1": {"name": "Fc-CSF-1: active fragment of porcine CSF-1 (SEQ ID NO:1) linked to the hinge-CH3 region of porcine IgG1a (SEQ ID NO:2) (protein, listed as Sus scrofa)", "chain": "SENCSHMIGDGHLKVLQQLIDSQMETSCQIAFEFVDQEQLTDPVCYLKKAFLQVQDILDETMRFRDNTPNANVIVQLQELSLRLNSCFTKDYEEQDKACVRTFYETPLQLLEKIKNVFNETKNLLKKDWNIFSKNCNNSFAKCSSQHERQPEGRGTKTKPPCPICPGCEVAGPSVFIFPPKPKDTLMISQTPEVTCVVVDVSKEHAEVQFSWYVDGVEVHTAETRPKEEQFNSTYRVVSVLPIQHQDWLKGKEFKCKVNNVDLPAPITRTISKAIGQSREPQVYTLPPPAEELSRSKVTVTCLVIGFYPPDIHVEWKSNGQPEPEGNYRTTPPQQDVDGTFFLYSKLAVDKARWDHGETFECAVMHEALHNHYTQKSISKTQGK"}}, "key": {"male C57BI6 mice [1]": {"tested_on": "male C57BI6 mice", "assay": "Murine models of acute and acute-on-chronic liver injury (all three injury models)", "format": "in vivo", "method": "(§1) Forty-eight male C57BI6 mice aged 10-12 weeks underwent either 2/3 partial hepatectomy, paracetamol intoxication or chronic liver injury plus 2/3 partial hepatectomy. 2/3 partial hepatectomy was performed by ligating the left lobe and left and right median lobes. Paracetamol intoxication was performed by intraperitoneal administration of 350 mg/kg paracetamol dissolved in phosphate buffered saline (PBS). Chronic liver injury plus 2/3 partial hepatectomy was performed by eight weeks intraperitoneal carbon tetrachloride administration 1 mcl/g twice weekly dissolved in olive oil followed by ⅔ partial hepatectomy as described above. […] Control mice (n=8 per injury model) received subcutaneous PBS of appropriate volume. All mice were culled on day 4 following injury (partial hepatectomy or paracetamol intoxication).\n(§2) Following a midline laparotomy the liver was excised and weighed. Liver weight to body weight ratio was calculated and expressed as a percentage. Livers were fixed in 4% formalin overnight then transferred to 70% ethanol. Livers were then embedded in paraffin blocks and 4 μm sections cut. Immunohistochemistry for Ki67 (a marker of cellular proliferation expressed throughout the cell cycle) was performed following heat mediated antigen retrieval in Tris/EDTA solution at pH9. Hepatocyte proliferation was quantified by counting ki67 positive hepatocytes in 20 high powered fields (400×) per animal and the mean calculated.\nThe effects of Fc-CSF1 on liver regeneration in murine models of acute liver injury (partial hepatectomy; paracetamol intoxication) and acute-on-chronic liver injury (chronic liver injury plus partial hepatectomy) were studieD. The treatment group (n=8 per injury model) received 0.5 mcg/g Fc-CSF1 administered subcutaneously immediately following either partial hepatectomy or paracetamol intoxication and subsequently every 24 hours for three further doses. Control mice (n=8 per injury model) received subcutaneous PBS of appropriate volume. […]"}, "male C57BI6 mice [2]": {"tested_on": "male C57BI6 mice", "assay": "Chronic liver injury (carbon tetrachloride) plus 2/3 partial hepatectomy in mice", "format": "in vivo, mouse", "settings": "for mouse body weight: p<0.001 at day 4", "method": "as §1, §2\nThe effects of Fc-CSF1 on liver regeneration in murine models of acute liver injury (partial hepatectomy; paracetamol intoxication) and acute-on-chronic liver injury (chronic liver injury plus partial hepatectomy) were studieD. […] Control mice (n=8 per injury model) received subcutaneous PBS of appropriate volume.\nCSF1-Fc or control was administered to mice immediately following 2/3 partial hepatectomy on a background of 8 weeks carbon tetrachloride induced chronic liver injury (1 mcl/g carbon tetrachloride/mouse 2×/week)."}, "male C57BI6 mice [3]": {"tested_on": "male C57BI6 mice", "assay": "2/3 partial hepatectomy in mice", "format": "in vivo, mouse", "method": "as §1, with “All mice were culled on day 4 following injury (partial hepatectomy or paracetamol intoxication).” left out\nas §2, with “calculated. […]” for “calculated.”"}, "[4]": {"tested_on": "Ba/F3 CS1R reporter cell line", "assay": "Proliferation of Ba/F3 CS1R reporter cell line (MTT cell viability assay)", "format": "cell-based, porcine", "settings": "data not shown", "method": "Stable Ba/F3 cells expressing porcine CSF-1R were maintained in culture with complete RPMI supplemented with either 10^4 Units/ml rh-CSF-1 or 10% IL-3 conditioned medium prior to MTT assay. 2×10^4 cells/well (Ba/F3 cells and Ba/F3 transfectants), or 5×10^4 cells/well (pig BMM) of a 96 well plate were plated in triplicate or quadruplicate and appropriate treatment (serial dilutions of rh-CSF-1 or porcine Fc CSF-1 were added to make a total volume of 100 μl per well. Cells were incubated for 48 hours at 37° C. with 5% CO2. For Ba/F3 cells, 10 μl of MTT (Sigma Aldrich M5655) stock solution (5 mg/ml) was added directly to each well to achieve a final concentration of 0.5 mg/ml and incubated at 37° C. for 3 hours prior to solubilisation overnight. For adherent mouse BMM cells, culture medium was replaced with 50 μl of 1 mg/ml MTT solution and incubated for 1 hour at 37° C. MTT solution was removed and tetrazolium salt solubilised with 100 μl of solubilisation agent (0.1M HCL, 10% Triton x-100 and isopropanol) followed by incubation at 37° C. with 5% CO2 for 10 minutes. Plates were read at 570 nm with reference wavelength of 405 nm.\nMice were injected with Fc-CSF-1 subcutaneously on each of 4 days and sacrificed on the 5th day. The mice were csf1r-EGFP (MacGreen) mice on the C57BI/6 background. […]"}, "[5]": {"settings": "all injury models, vs PBS control"}, "[6]": {"settings": "chronic liver injury with 2/3 partial hepatectomy, vs control"}, "[7]": {"settings": "administered immediately following 2/3 partial hepatectomy, vs control"}, "[8]": {"settings": "day 2 following partial hepatectomy, vs controls"}}, "data": [{"molecule": "B1", "values": [{"measurement": "hepatic weights", "setting": "male C57BI6 mice [1]; [5]", "result": "growth promoting effect"}, {"measurement": "hepatocyte proliferation", "setting": "male C57BI6 mice [1]; [5]", "result": "growth promoting effect"}, {"measurement": "tolerability of interventions and treatments", "setting": "male C57BI6 mice [1]; subcutaneously immediately after injury, then every 24 hours for three further doses", "result": "well tolerated"}, {"measurement": "fibrosis assessed by Sirius red quantification", "setting": "male C57BI6 mice [2]; [6]", "result": "trend to reduction"}, {"measurement": "liver weight to body weight ratio", "setting": "male C57BI6 mice [2]; [6]", "result": "increased significantly"}, {"measurement": "number of proliferating hepatocytes", "setting": "male C57BI6 mice [2]; [6]", "result": "increased significantly"}, {"measurement": "mouse body weight", "setting": "male C57BI6 mice [2]; [6]", "result": "significant increase in mouse weight"}, {"measurement": "mouse body weight", "setting": "male C57BI6 mice [2]; chronic liver injury with 2/3 partial hepatectomy, vs control, listed as CSF1-Fc", "result": "significant increase in body weight"}, {"measurement": "survival", "setting": "male C57BI6 mice [2]; chronic liver injury with 2/3 partial hepatectomy, vs control, p=0.08", "result": "trend to improved survival"}, {"measurement": "serum ALT", "setting": "male C57BI6 mice [2]; day 4 post hepatectomy", "result": "significant reduction"}, {"measurement": "serum bilirubin", "setting": "male C57BI6 mice [2]; day 4 post hepatectomy", "result": "significant reduction"}, {"measurement": "hepatocyte proliferation", "setting": "male C57BI6 mice [3]; [7]", "result": "increasing"}, {"measurement": "liver weight to body weight ratio", "setting": "male C57BI6 mice [3]; [7]", "result": "significantly increasing"}, {"measurement": "gene expression of oncostatin M (OSM)", "setting": "male C57BI6 mice [3]; [8]", "result": "significantly enhanced"}, {"measurement": "gene expression of pro-regenerative cytokine 116", "setting": "male C57BI6 mice [3]; [8]", "result": "significantly enhanced"}, {"measurement": "urokinase receptor (UR) expression", "setting": "male C57BI6 mice [3]; following partial hepatectomy, vs controls", "result": "significantly elevated"}, {"measurement": "biological activity (proliferation) compared with recombinant pig CSF-1", "setting": "[4]", "result": "no difference in biological activity"}]}]}
